Assay results: US20240325499A1, “FGF21 COMPOUND / GLP-1R AGONIST COMBINATIONS WITH OPTIMIZED ACTIVITY RATIO” (SANOFI, priority 2018, published 2024)

Biological target: human FGFR1c (FGF receptor 1c isoform) together with human beta-Klotho (KLB) (human) (UniProt P11362)
Test: cell-based or functional assay

mature human wild-type FGF21, FGF21(His29-Ser209), sequence (Q9NSA1 29-209 L174P): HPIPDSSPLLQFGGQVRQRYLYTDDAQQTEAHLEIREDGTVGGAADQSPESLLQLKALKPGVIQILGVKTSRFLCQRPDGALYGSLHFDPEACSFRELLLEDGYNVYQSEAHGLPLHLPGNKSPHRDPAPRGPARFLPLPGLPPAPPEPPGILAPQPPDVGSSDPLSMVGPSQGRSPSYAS

In the case of “mature human wild-type FGF21, FGF21(His29-Ser209) (from UniProt Q9NSA1 29-209) (ligand)”, the pERK ICW EC50 (nmol/L) is reported as 0.18 nmol/L and the pFGFR ICW EC50 (nmol/L) is reported as 4.8 nmol/L.
